Assay results from patent US11098105 (Zymeworks, dated 2021).
Substitutions are numbered along the chain they refer to.

T1: FcγRIIaH (UniProt P12318 36-218)
T1 construct: also called 2aH; 2ah
T1 sequence (looked up): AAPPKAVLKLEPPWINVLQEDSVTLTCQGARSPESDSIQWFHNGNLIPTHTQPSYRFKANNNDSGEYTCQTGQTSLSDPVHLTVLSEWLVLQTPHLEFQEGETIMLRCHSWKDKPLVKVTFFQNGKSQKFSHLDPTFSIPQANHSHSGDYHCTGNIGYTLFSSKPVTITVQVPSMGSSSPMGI

T2: FcγRIIaR (UniProt P12318 36-218)
T2 construct: also called 2aR; 2ar
T2 sequence (looked up): T1 sequence (looked up) with H132R

T3: FcγRIIb (UniProt P31994 46-217)
T3 construct: also called 2b; CD32b
T3 sequence (looked up): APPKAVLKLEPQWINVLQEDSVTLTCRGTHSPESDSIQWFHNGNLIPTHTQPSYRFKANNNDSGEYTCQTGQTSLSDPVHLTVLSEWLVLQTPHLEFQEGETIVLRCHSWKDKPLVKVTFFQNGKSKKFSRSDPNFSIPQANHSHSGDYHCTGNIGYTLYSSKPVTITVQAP

B1: Control WT Rituximab 1261 (antibody, human IgG1, kappa)
heavy 1: QVQLQQPGAELVKPGASVKMSCKASGYTFTSYNMHWVKQTPGRGLEWIGAIYPGNGDTSYNQKFKGKATLTADKSSSTAYMQLSSLTSEDSAVYYCARSTYYGGDWYFNVWGAGTTVTVSAASTKGPSVFPLAPSSKSTSGGTAALGCLVKDYFPEPVTVSWNSGALTSGVHTFPAVLQSSGLYSLSSVVTVPSSSLGTQTYICNVNHKPSNTKVDKKVEPKSCDKTHTCPPCPAPELLGGPSVFLFPPKPKDTLMISRTPEVTCVVVDVSHEDPEVKFNWYVDGVEVHNAKTKPREEQYNSTYRVVSVLTVLHQDWLNGKEYKCKVSNKALPAPIEKTISKAKGQPREPQVYVYPPSRDELTKNQVSLTCLVKGFYPSDIAVEWESNGQPENNYKTTPPVLDSDGSFALVSKLTVDKSRWQQGNVFSCSVMHEALHNHYTQKSLSLSPGK
heavy 2: not shown
light: QIVLSQSPAILSASPGEKVTMTCRASSSVSYIHWFQQKPGSSPKPWIYATSNLASGVPVRFSGSGSGTSYSLTISRVEAEDAATYYCQQWTSNPPTFGGGTKLEIKRTVAAPSVFIFPPSDEQLKSGTASVVCLLNNFYPREAKVQWKVDNALQSGNSQESVTEQDSKDSTYSLSSTLTLSKADYEKHKVYACEVTHQGLSSPVTKSFNRGEC
notes: also called v1261; V1261
B2: AAC15, rituximab-based asymmetric antibody construct (antibody, human IgG1, kappa)
heavy 1: B1 heavy 1 with L238D, L239E, D269S, E273K, K326E, E337K
heavy 2: QVQLQQPGAELVKPGASVKMSCKASGYTFTSYNMHWVKQTPGRGLEWIGAIYPGNGDTSYNQKFKGKATLTADKSSSTAYMQLSSLTSEDSAVYYCARSTYYGGDWYFNVWGAGTTVTVSAASTKGPSVFPLAPSSKSTSGGTAALGCLVKDYFPEPVTVSWNSGALTSGVHTFPAVLQSSGLYSLSSVVTVPSSSLGTQTYICNVNHKPSNTKVDKKVEPKSCDKTHTCPPCPAPKRRGGPSVFLFPPKPKDTLMISRTPEVTCVVVSVSHKDPEVKFNWYVDGVEVHNAKTKPREEQYNSTYRVVSVLTVLHQDWLNGKEYKCEVSNKALPAPIKKTISKAKGQPREPQVYVLPPSRDELTKNQVSLLCLVKGFYPSDIAVEWESNGQPENNYLTWPPVLDSDGSFFLYSKLTVDKSRWQQGNVFSCSVMHEALHNHYTQKSLSLSPGK
light: B1 light
B3: AAC9, rituximab-based asymmetric antibody construct (antibody, human IgG1, kappa)
heavy 1: B1 heavy 1 with L238D, L239E
heavy 2: B2 heavy 2 with S269D, K273E, E326K, K337E
light: B1 light
B4: AAC11, rituximab-based asymmetric antibody construct (antibody, human IgG1, kappa)
heavy 1: B1 heavy 1 with L238D, L239E, E273K
heavy 2: B2 heavy 2 with S269D, E326K, K337E
light: B1 light
B5: AAC14, rituximab-based asymmetric antibody construct (antibody, human IgG1, kappa)
heavy 1: B1 heavy 1 with L238D, L239E, D269S, E273K, K326A
heavy 2: B2 heavy 2 with E326A, K337E
light: B1 light
B6: AAC10, rituximab-based asymmetric antibody construct (antibody, human IgG1, kappa)
heavy 1: B1 heavy 1 with L238D, L239E, D269S
heavy 2: B2 heavy 2 with K273E, E326K, K337E
light: B1 light
B7: AAC12, rituximab-based asymmetric antibody construct (antibody, human IgG1, kappa)
heavy 1: B1 heavy 1 with L238D, L239E, K326A
heavy 2: B2 heavy 2 with S269D, K273E, E326A, K337E
light: B1 light
B8: AAC13, rituximab-based asymmetric antibody construct (antibody, human IgG1, kappa)
heavy 1: B1 heavy 1 with L238D, L239E, P333W
heavy 2: B2 heavy 2 with S269D, K273E, E326K, P333W, K337E
light: B1 light

Key:
Human C1q = Human C1q (human, UniProt P02745 23-245; P02746 28-253; P02747 29-245); assay: cell-based or functional assay
[1] = molecular target: CD16a(158V/V) on NK92 effector cells (UniProt P08637 17-254, limits assumed); assay: cell-based or functional assay
FcγRIIaH [2] = molecular target: T1, FcγRIIaH; assay: SPR, antibody captured by goat anti-IgG, FcγR injected, equilibrium fit
Method: (§1) Affinity of FcgR to antibody Fc was measured by SPR using a ProteOn XPR36 at 25° C. with PBS containing 3.4 mM EDTA, and 0.05% Tween 20 at pH 7.4 as the running buffer. […] 40 μg/mL of purified rituximab-based antibodies were indirectly captured by injecting at 25 μL/min for 240s (resulting in approx. 500RUs capture) in the ligand direction, following a buffer injection to establish a stable baseline in the analyte direction. FcγRs were subsequently injected at 50 μL/min for 120s with a 180s dissociation phase to obtain a set of binding sensorgrams. Resultant Kd (affinity) values were determined from double-referenced sensorgrams using the Equilibrium Fit model in the Proteon Manager software. Reported values as the mean of two or three independent runs.

FcγRIIaR [3] = molecular target: T2, FcγRIIaR; assay: as above
Method: as §1

FcγRIIb [4] = molecular target: T3, FcγRIIb; assay: as above
Method: as §1

FcγRIIIaV = molecular target: T4, FcγRIIIaV (UniProt P08637 17-208); assay: as above
T4 construct: also called 3aV; 3av
Method: as §1

FcγRIIIaF [5] = molecular target: T5, FcγRIIIaF (UniProt P08637 17-208); assay: as above
T5 construct: also called 3aF; 3af
Method: as §1

FcγRIIaH [6] = molecular target: T1, FcγRIIaH; assay: SPR, antibody captured by goat anti-IgG, FcγR injected
FcγRIIaR [7] = molecular target: T2, FcγRIIaR; assay: as above
FcγRIIb [8] = molecular target: T3, FcγRIIb; assay: as above
FcγRIIIaF [9] = molecular target: T5, FcγRIIIaF; assay: as above

Sequence of Human C1q (P02745 23-245 limits assumed, chain 1 of 3): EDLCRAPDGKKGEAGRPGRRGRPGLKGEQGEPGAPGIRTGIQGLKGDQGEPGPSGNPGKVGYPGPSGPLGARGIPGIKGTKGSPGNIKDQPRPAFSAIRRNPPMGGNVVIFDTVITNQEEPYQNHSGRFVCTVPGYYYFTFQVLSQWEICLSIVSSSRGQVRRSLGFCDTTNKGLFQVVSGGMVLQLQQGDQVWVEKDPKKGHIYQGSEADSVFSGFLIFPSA
Sequence of Human C1q (P02746 28-253 limits assumed, chain 2 of 3): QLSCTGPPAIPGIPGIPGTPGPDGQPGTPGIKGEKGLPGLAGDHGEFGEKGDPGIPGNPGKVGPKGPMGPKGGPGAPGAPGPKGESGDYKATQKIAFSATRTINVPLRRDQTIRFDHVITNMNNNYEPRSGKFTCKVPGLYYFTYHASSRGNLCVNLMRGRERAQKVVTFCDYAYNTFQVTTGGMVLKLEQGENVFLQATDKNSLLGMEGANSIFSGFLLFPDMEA
Sequence of Human C1q (P02747 29-245 limits assumed, chain 3 of 3): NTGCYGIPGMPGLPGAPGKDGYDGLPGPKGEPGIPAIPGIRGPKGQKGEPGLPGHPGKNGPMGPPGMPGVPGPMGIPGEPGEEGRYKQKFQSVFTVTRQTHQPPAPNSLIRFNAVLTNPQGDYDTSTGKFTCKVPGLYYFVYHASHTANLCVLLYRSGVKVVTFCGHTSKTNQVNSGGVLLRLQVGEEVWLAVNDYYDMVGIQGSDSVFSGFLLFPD

| CDC EC50 [nM], Daudi cells, 10% normal human serum (Human C1q) | CDC Maximum Lysis, Daudi cells, 10% normal human serum (Human C1q) | ADCC EC50 [nM], Daudi cells, NK92/CD16a(158V/V) effector cells [1] | ADCC Maximum Lysis, Daudi cells, NK92/CD16a(158V/V) effector cells [1] | SPR Ka ratio with respect to wild-type trastuzumab (FcγRIIaH [2]) | SPR Ka ratio with respect to wild-type trastuzumab (FcγRIIaR [3]) | SPR Ka ratio with respect to wild-type trastuzumab (FcγRIIb [4]) | SPR Ka ratio with respect to wild-type trastuzumab (FcγRIIIaV) | SPR Ka ratio with respect to wild-type trastuzumab (FcγRIIIaF [5]) | binding result (FcγRIIaH [6]) | binding result (FcγRIIaR [7]) | binding result (FcγRIIb [8]) | binding result (FcγRIIIaF [9]) | Binder |
| --- | --- | --- | --- | --- | --- | --- | --- | --- | --- | --- | --- | --- | --- |
| 2.9 nM | 96 % cell lysis | 0.1 nM | 66 % cell lysis | 1.87 | 1.47 | 1.85 | 1.34 | 1.36 | – | – | – | – | B1 |
| ~55.9 nM | 43 % cell lysis | – | – | – | – | – | – | – | no binding | no binding | no binding | no binding | B2 |
| 47.9 nM | 68 % cell lysis | – | – | – | – | – | 0.08 | – | no binding | no binding | no binding | no binding | B3 |
| 51.6 nM | 63 % cell lysis | > 100 nM | – | – | – | – | – | – | no binding | no binding | no binding | no binding | B4 |
| 69.7 nM | 72 % cell lysis | – | – | – | – | – | – | – | no binding | no binding | no binding | no binding | B5 |
| 82.8 nM | 79 % cell lysis | 7.4 nM | 45 % cell lysis | – | – | – | – | – | no binding | no binding | no binding | no binding | B6 |
| 54.6 nM | 67 % cell lysis | 23.1 nM | 20 % cell lysis | – | – | – | 0.08 | – | no binding | no binding | no binding | no binding | B7 |
| – | – | – | – | – | – | – | – | – | no binding | no binding | no binding | no binding | B8 |
